# Laboratory results taken from PMC11969024 (2025).
# B1: peptide HD2 (from tick evasin EVA4) / CXCL11 (biotinylated, synthetic) (parent complex)
# chain 1: EEDDYTAYAPLTCYFT
# chain 2: FPMFKRGRCLCIGPGVKAVKVADIEKASIMYPSNNCDKIEVIITLKENKGQRCLNPKSKQARLIIKKVERKNF
# Variants of: B1
row,Variant,enrichment
1,chain 1 L11C,-2.08 log2 (difference from the parental peptide)
2,chain 1 L11H,0.15 log2 (difference from the parental peptide)
3,chain 1 L11M,2.73 log2 (difference from the parental peptide)
4,chain 1 L11S,-0.706 log2 (difference from the parental peptide)
5,chain 1 L11P,-5.24 log2 (difference from the parental peptide)
6,chain 1 L11D,-5.22 log2 (difference from the parental peptide)
7,chain 1 L11A,-1.47 log2 (difference from the parental peptide)
8,chain 1 L11R,-3.19 log2 (difference from the parental peptide)
9,chain 1 L11W,4.79 log2 (difference from the parental peptide)
10,chain 1 L11K,-4.12 log2 (difference from the parental peptide)
11,chain 1 D3I,-2.24 log2 (difference from the parental peptide)
12,chain 1 D3F,-3.31 log2 (difference from the parental peptide)
13,chain 1 D3N,-0.358 log2 (difference from the parental peptide)
14,chain 1 D3T,-3.75 log2 (difference from the parental peptide)
15,chain 1 D3W,0.263 log2 (difference from the parental peptide)
16,chain 1 D3Y,-1.43 log2 (difference from the parental peptide)
17,chain 1 D3L,-0.828 log2 (difference from the parental peptide)
18,chain 1 D4I,-4.93 log2 (difference from the parental peptide)
19,chain 1 D4M,-5.76 log2 (difference from the parental peptide)
20,chain 1 D4S,-5.73 log2 (difference from the parental peptide)
21,chain 1 D4F,-5.51 log2 (difference from the parental peptide)
22,chain 1 D4P,0.748 log2 (difference from the parental peptide)
23,chain 1 D4V,-6.99 log2 (difference from the parental peptide)
24,chain 1 D4L,-4.01 log2 (difference from the parental peptide)
25,chain 1 D4W,-2.72 log2 (difference from the parental peptide)

row,Variant,enrichment
1,chain 1 F15V,-0.608 log2 (difference from the parental peptide)
2,chain 1 F15G,-4.79 log2 (difference from the parental peptide)
3,chain 1 F15Y,0.592 log2 (difference from the parental peptide)
4,chain 1 F15A,-3.02 log2 (difference from the parental peptide)
5,chain 1 F15L,-2.87 log2 (difference from the parental peptide)
6,chain 1 F15E,-6.06 log2 (difference from the parental peptide)
7,chain 1 F15R,-4.18 log2 (difference from the parental peptide)
8,chain 1 F15C,0.343 log2 (difference from the parental peptide)
9,chain 1 F15S,-1.86 log2 (difference from the parental peptide)
10,chain 1 F15H,-2.86 log2 (difference from the parental peptide)
11,chain 1 F15Q,-2.96 log2 (difference from the parental peptide)
12,chain 1 E1P,-4.68 log2 (difference from the parental peptide)
13,chain 1 E1L,-0.107 log2 (difference from the parental peptide)
14,chain 1 E1D,1.33 log2 (difference from the parental peptide)
15,chain 1 E1N,-4.13 log2 (difference from the parental peptide)
16,chain 1 E1I,0.804 log2 (difference from the parental peptide)
17,chain 1 E1Y,1.69 log2 (difference from the parental peptide)
18,chain 1 E1A,0.823 log2 (difference from the parental peptide)
19,chain 1 E1V,-6.09 log2 (difference from the parental peptide)
20,chain 1 P10I,-0.366 log2 (difference from the parental peptide)
21,chain 1 P10W,0.743 log2 (difference from the parental peptide)
22,chain 1 P10E,-3.45 log2 (difference from the parental peptide)
23,chain 1 P10V,-5.93 log2 (difference from the parental peptide)
24,chain 1 P10D,8.22 log2 (difference from the parental peptide)
25,chain 1 P10S,-1.81 log2 (difference from the parental peptide)

row,Variant,enrichment
1,chain 1 P10H,-5.09 log2 (difference from the parental peptide)
2,chain 1 P10G,2.73 log2 (difference from the parental peptide)
3,chain 1 P10L,-1.17 log2 (difference from the parental peptide)
4,chain 1 P10M,-4.64 log2 (difference from the parental peptide)
5,chain 1 P10N,1.47 log2 (difference from the parental peptide)
6,chain 1 T6P,1.34 log2 (difference from the parental peptide)
7,chain 1 T6I,-0.429 log2 (difference from the parental peptide)
8,chain 1 T6G,4.62 log2 (difference from the parental peptide)
9,chain 1 T6W,9.7 log2 (difference from the parental peptide)
10,chain 1 T6K,0.156 log2 (difference from the parental peptide)
11,chain 1 T6F,4.5 log2 (difference from the parental peptide)
12,chain 1 T6D,3.67 log2 (difference from the parental peptide)
13,chain 1 T6S,1.57 log2 (difference from the parental peptide)
14,chain 1 T6A,1.82 log2 (difference from the parental peptide)
15,chain 1 T6Q,-2.01 log2 (difference from the parental peptide)
16,chain 1 T6C,-5.45 log2 (difference from the parental peptide)
17,chain 1 T6M,1.9 log2 (difference from the parental peptide)
18,chain 1 T6H,-0.342 log2 (difference from the parental peptide)
19,chain 1 T6N,1.03 log2 (difference from the parental peptide)
20,chain 1 T6Y,3.68 log2 (difference from the parental peptide)
21,chain 1 T16M,-0.985 log2 (difference from the parental peptide)
22,chain 1 T16G,0.304 log2 (difference from the parental peptide)
23,chain 1 T16E,1.12 log2 (difference from the parental peptide)
24,chain 1 T16S,0.254 log2 (difference from the parental peptide)
25,chain 1 T16Q,-2.38 log2 (difference from the parental peptide)

row,Variant,enrichment
1,chain 1 T16Y,-3.28 log2 (difference from the parental peptide)
2,chain 1 T16I,0.577 log2 (difference from the parental peptide)
3,chain 1 T16P,0.438 log2 (difference from the parental peptide)
4,chain 1 T16V,-2.73 log2 (difference from the parental peptide)
5,chain 1 T16F,-2.01 log2 (difference from the parental peptide)
6,chain 1 T16C,2.71 log2 (difference from the parental peptide)
7,chain 1 Y8M,-5.63 log2 (difference from the parental peptide)
8,chain 1 Y8D,-3.68 log2 (difference from the parental peptide)
9,chain 1 Y8G,-1.09 log2 (difference from the parental peptide)
10,chain 1 Y8V,-0.599 log2 (difference from the parental peptide)
11,chain 1 Y8H,-4.71 log2 (difference from the parental peptide)
12,chain 1 Y8A,-0.869 log2 (difference from the parental peptide)
13,chain 1 Y8T,-5.62 log2 (difference from the parental peptide)
14,chain 1 Y8W,2.23 log2 (difference from the parental peptide)
15,chain 1 Y8I,-0.997 log2 (difference from the parental peptide)
16,chain 1 Y8F,0.146 log2 (difference from the parental peptide)
17,chain 1 Y14G,-6.05 log2 (difference from the parental peptide)
18,chain 1 Y14V,-5.26 log2 (difference from the parental peptide)
19,chain 1 Y14C,-3.13 log2 (difference from the parental peptide)
20,chain 1 Y14H,-2.54 log2 (difference from the parental peptide)
21,chain 1 Y14T,-5.08 log2 (difference from the parental peptide)
22,chain 1 Y14F,0.796 log2 (difference from the parental peptide)
23,chain 1 A9L,-2.33 log2 (difference from the parental peptide)
24,chain 1 A9T,1.25 log2 (difference from the parental peptide)
25,chain 1 A9W,5.42 log2 (difference from the parental peptide)

row,Variant,enrichment
1,chain 1 A9V,-2.18 log2 (difference from the parental peptide)
2,chain 1 A9Q,0.165 log2 (difference from the parental peptide)
3,chain 1 A9R,-1.01 log2 (difference from the parental peptide)
4,chain 1 A9H,-5.35 log2 (difference from the parental peptide)
5,chain 1 A9N,-2.99 log2 (difference from the parental peptide)
6,chain 1 A9E,2.26 log2 (difference from the parental peptide)
7,chain 1 A9I,-4.81 log2 (difference from the parental peptide)
8,chain 1 A9M,-0.281 log2 (difference from the parental peptide)
9,chain 1 T12I,0.0621 log2 (difference from the parental peptide)
10,chain 1 T12V,1.82 log2 (difference from the parental peptide)
11,chain 1 T12D,-5.79 log2 (difference from the parental peptide)
12,chain 1 T12R,-6.22 log2 (difference from the parental peptide)
13,chain 1 T12Y,1.35 log2 (difference from the parental peptide)
14,chain 1 T12L,-0.306 log2 (difference from the parental peptide)
15,chain 1 T12W,0.223 log2 (difference from the parental peptide)
16,chain 1 T12A,-4.34 log2 (difference from the parental peptide)
17,chain 1 T12M,0.317 log2 (difference from the parental peptide)
18,chain 1 T12H,-2.7 log2 (difference from the parental peptide)
19,chain 1 T12P,-0.00384 log2 (difference from the parental peptide)
20,chain 1 T12S,-1.85 log2 (difference from the parental peptide)
21,chain 1 E2L,-1.04 log2 (difference from the parental peptide)
22,chain 1 E2D,0.953 log2 (difference from the parental peptide)
23,chain 1 E2H,-4.78 log2 (difference from the parental peptide)
24,chain 1 E2K,-2.28 log2 (difference from the parental peptide)
25,chain 1 E2V,-1.84 log2 (difference from the parental peptide)

row,Variant,enrichment
1,chain 1 E2S,-2.62 log2 (difference from the parental peptide)
2,chain 1 A7K,-3.04 log2 (difference from the parental peptide)
3,chain 1 A7H,-1.06 log2 (difference from the parental peptide)
4,chain 1 A7D,2.88 log2 (difference from the parental peptide)
5,chain 1 A7G,-3.03 log2 (difference from the parental peptide)
6,chain 1 A7V,0.52 log2 (difference from the parental peptide)
7,chain 1 A7Q,3.76 log2 (difference from the parental peptide)
8,chain 1 A7M,1.69 log2 (difference from the parental peptide)
9,chain 1 A7R,-1.89 log2 (difference from the parental peptide)
10,chain 1 A7E,-0.399 log2 (difference from the parental peptide)
11,chain 1 A7F,1.43 log2 (difference from the parental peptide)
12,chain 1 A7S,0.213 log2 (difference from the parental peptide)
13,chain 1 A7P,0.432 log2 (difference from the parental peptide)
14,chain 1 A7T,-0.798 log2 (difference from the parental peptide)
15,chain 1 A7N,1.13 log2 (difference from the parental peptide)
16,chain 1 Y5L,-4.33 log2 (difference from the parental peptide)
17,chain 1 Y5F,-0.5 log2 (difference from the parental peptide)
18,chain 1 Y5W,5.39 log2 (difference from the parental peptide)
19,chain 1 C13P,-5.74 log2 (difference from the parental peptide)
20,chain 1 C13Q,-4.93 log2 (difference from the parental peptide)
21,chain 1 C13E,-5.07 log2 (difference from the parental peptide)
22,chain 1 C13A,-5.18 log2 (difference from the parental peptide)
23,chain 1 C13N,-3.76 log2 (difference from the parental peptide)
24,chain 1 C13L,-8.45 log2 (difference from the parental peptide)
25,chain 1 C13M,-6.65 log2 (difference from the parental peptide)
